What was measured:
[1] = target: T1, β2-adrenergic receptor fused to a TEV cleavage site and tTA (human, UniProt P07550 1-413); assay: Tango assay (TEV protease proximity reporter); HTL cells co-transfected with receptor-TEV cleavage site-tTA and GRK-TEV protease fusions; luciferase reporter; vehicle or ligand overnight (ATR 10 μM for rhodopsin; paroxetine; DHE 0.1 μM, GR 127935 1 μM; SX 1 μM, ICI 118 551 1 μM); DNA amounts adjusted for similar expression; conditions: partners not purified
T1 construct: human β2-adrenergic receptor; also called β2AR; source: HTL cells, transfected (pcDNA3), in cells; not shown: TEV cleavage site (ENLYFQS), C-terminal, kept

[2] = target: T2, serotonin receptor 5-HT1B fused to a TEV cleavage site and tTA (human, UniProt P28222 1-390); assay: as above; conditions: partners not purified
T2 construct: human serotonin receptor 5-HT1B; also called HTR1b; source: HTL cells, transfected (pcDNA3), in cells; not shown: TEV cleavage site (ENLYFQS), C-terminal, kept

[3] = target: T3, Arrestin-biotin-MBP (human wild-type visual arrestin), purified (human, UniProt P10523 1-405, biotin on the tag); assay: AlphaScreen or HTRF; biotinylated WT arrestin and His8-tagged 4M Rho, with 80 nM purified GRK1 and 40 μM ATP added (indirect kinase assay); conditions: both partners purified
T3 construct: human visual arrestin (arrestin1); also called WT arrestin; arrestin1; source: Sf9 insect cells, purified on amylose beads; not shown: biotin tag, C-terminal, kept

B1: bovine GRK2 fused to the N-terminus of TEV protease (enzyme, UniProt P21146 1-689, looked up)
chain: MADLEAVLADVSYLMAMEKSKATPAARASKKILLPEPSIRSVMQKYLEDRGEVTFEKIFSQKLGYLLFRDFCLKHLEEAKPLVEFYEEIKKYEKLETEEERLVCSREIFDTYIMKELLACSHPFSKSAIEHVQGHLVKKQVPPDLFQPYIEEICQNLRGDVFQKFIESDKFTRFCQWKNVELNIHLTMNDFSVHRIIGRGGFGEVYGCRKADTGKMYAMKCLDKKRIKMKQGETLALNERIMLSLVSTGDCPFIVCMSYAFHTPDKLSFILDLMNGGDLHYHLSQHGVFSEADMRFYAAEIILGLEHMHNRFVVYRDLKPANILLDEHGHVRISDLGLACDFSKKKPHASVGTHGYMAPEVLQKGVAYDSSADWFSLGCMLFKLLRGHSPFRQHKTKDKHEIDRMTLTMAVELPDSFSPELRSLLEGLLQRDVNRRLGCLGRGAQEVKESPFFRSLDWQMVFLQKYPPPLIPPRGEVNAADAFDIGSFDEEDTKGIKLLDSDQELYRNFPLTISERWQQEVAETVFDTINAETDRLEARKKTKNKQLGHEEDYALGKDCIMHGYMSKMGNPFLTQWQRRYFYLFPNRLEWRGEGEAPQSLLTMEEIQSVEETQIKERKCLLLKIRGGKQFVLQCDSDPELVQWKKELRDAYREAQQLVQRVPKMKNKPRSPVVELSKVPLIQRGSANGL
notes: bovine GRK2; source: HTL cells, transfected (pcDNA3), in cells; not shown: HA or FLAG, C-terminal, kept; TEV protease, C-terminal, kept
[1]
  fold induction by the agonist salmeterol xinafoate over the vehicle control: 2 fold
[2]
  fold induction by the agonist dihydroergotamine over the vehicle control: 2.5 fold

B2: H8-MBP-Rho (4M) phosphorylated by purified GRK1 with ATP (receptor, human, UniProt P08100 1-348, looked up)
chain: MCGTEGPNFYVPFSNATGVVRSPFEYPQYYLAEPWQFSMLAAYMFLLIVLGFPINFLTLYVTVQHKKLRTPLNYILLNLAVADLFMVLGGFTSTLYTSLHGYFVFGPTGCNLQGFFATLGGEIALWSLVVLAIERYVVVCKPMSNFRFGENHAIMGVAFTWVMALACAAPPLAGWSRYIPEGLQCSCGIDYYTLKPEVNNESFVIYMFVVHFTIPMIIIFFCYGQLVFTVKEAAAQQQESATTQKAEKEVTRMVIIYVIAFLICWVPYASVAFYIFTHQGSCFGPIFMTIPAFFAKSAAIYNPVIYIMMNKQFRNCMLTTICCGKNPLGDDEASATVSKTETSQVAPA
modifications: phosphorylated by GRK1; sites not stated
notes: human rhodopsin; also called GRK-phosphorylated Rho; source: HEK293S cells, purified on amylose beads; phosphorylated in the assay mixture by 80 nM purified GRK1 with 40 μM ATP; not shown: His8, N-terminal, kept
[3]
  binding result: binds
